Reference: patent US20160361384A1, “COSMETIC USE OF DERMICIDIN, OR ANALOGUES OR FRAGMENTS THEREOF, FOR THE PREVENTION AND/OR TREATMENT AND DIAGNOSIS OF OILY SKIN AND AESTHETIC SKIN DISORDERS ASSOCIATED THEREWITH” (L'OREAL, priority 2013, published 2016)
Ends that are not written are not given here.

Tested on: P. acnes ATCC 6919
Format: cell-based, Propionibacterium acnes
Conditions: for MIC in μg/ml P. acnes: P. acnes ATCC 6919, 48 h incubation, optical density at 620 nm, concentration range 5 to 100 μg/ml, triplicate
Protocol: A micromethod was developed in a microplate.
The test principle is based on bringing decreasing concentrations of antimicrobial peptide (DCD-1L) into contact with an identical inoculum of P. acnes in a culture medium conducive to the growth of P. acnes. After incubation of the microplate for 48 h with the P. acnes strain, the optical density of the sample (620 nm) is measured and the results are expressed as percentage growth calculated relative to a growth control without antimicrobial peptide (negative control).
In addition, the inoculum is also brought into contact with triclosan in order to have a positive control.
The minimum inhibitory concentration or MIC is the lowest concentration of antibiotic that is sufficient to inhibit, in the laboratory, i.e. in vitro, the growth of a bacterial strain (bacterial colony).
The concentration range chosen ranged from 5 to 100 μg/ml.
Each concentration was tested in triplicate.
The inhibitory activity of the peptides was evaluated on the following microorganism: • P. acnes ATCC 6919 (Gram+bacterium)

Molecule: SSLLEKGLDGAKKAVGGLGKLGKDAVEDLESVGKGAVHDVKDVLDSVL [Dermcidin (DCD1L)]
- MIC in μg/ml P. acnes: <5 µg/mL
- growth of P. acnes (in the presence of a low concentration of the peptide): greatly inhibited

B1: Recombinant human S100A7: recombinant human S100A7, Interchim (Protera), folding verified by NMR, batch EN00510-23/24/25 (protein, UniProt P31151 2-101, looked up)
Protein S100-A7: SNTQAERSIIGMIDMFHKYTRRDDKIEKPSLLTMMKENFPNFLSACDKKGTNYLADVFEKKDKNEDKKIDFSEFLSLLGDIATDYHKQSHGAAPCSGGSQ
- MIC in μg/ml P. acnes: >100 µg/mL

B2: RNASE 7: antimicrobial peptide RNASE 7, Human Plv extraction (heel horn) (protein, UniProt Q9H1E1 29-156, looked up)
Ribonuclease 7: KPKGMTSSQWFKIQHMQPSPQACNSAMKNINKHTKRCKDLNTFLHEPFSSVAATCQTPKIACKNGDKNCHQSHGAVSLTMCKLTSGKHPNCRYKEKRQNKSYVVACKPPQKKDSQQFHLVPVHLDRVL
- MIC in μg/ml P. acnes: >100 µg/mL

B3: Lacritin: antimicrobial peptide Lacritin, synthesized by hybrogenics Ref: Hgx 2238v1 (peptide, UniProt Q9GZZ8 20-138, looked up)
Extracellular glycoprotein …: EDASSDSTGADPAQEAGTSKPNEEISGPAEPASPPETTTTAQETSAAAVQGTAKVTSSRQELNPLKSIVEKSILLTEQALAKAGKGMHGGVPGGKQFIENGSEFAQKLLKKFSLLKPWA
- MIC in μg/ml P. acnes: 100 µg/mL
